The text below walks through data of paper PMC11919277.

Common to all, as to assay: co-immunoprecipitation (anti-HA agarose beads), western blot, ImageJ densitometry
Holding throughout (details): three independent experiments; parent: est. 0.97; read off a plot

Experiment [1] concerns the target WT-Clocka, FLAG-tagged (zebrafish Clocka, wild type).
In experiment [2] the target is WT-Bmal1a, HA-tagged (zebrafish Bmal1a, wild type).
Experiment [3] concerns the target Bmal1a-mut, HA-tagged (zebrafish Bmal1a with the four cetacean-specific BMAL1 mutations).

In the case of “WT-Bmal1a, HA-tagged (zebrafish Bmal1a, wild type) D3E; L456P; H461R; M466T”, the ratio to parent in experiment [1] stood at 1.2. Consider “WT-Clocka, FLAG-tagged (zebrafish Clocka, wild type) M724V; S752P; T779A”, for which the ratio to parent in experiment [2] stood at 1.6. With “m1; m3 Clocka: M724V; S752P; T779A; Bmal1a: D3E; L456P; H461R; M466T”, the ratio to parent in experiment [3] was found to be 1.6.
